This assay deals with SARS-CoV-2 Beta-variant Spike with six stabilizing proline substitutions (S-6P) (SARS-CoV-2 Beta variant, strain). The experiment in a line: BLI.

B1: C143 variant VL T33N-G53V, IgG (antibody, V domains shown)
VH: EVQLVESGGGLVQPGGSLRLSCAASGFSVSTKYMTWVRQAPGKGLEWVSVLYSGGSDYYADSVKGRFTISRDNSKNALYLQMNSLRVEDTGVYYCARDSSEVRDHPGHPGRSVGAFDIWGQGTMVTVSS
VL: QSALTQPASVSGSPGQSITISCTGTSNDVGSYNLVSWYQQYPGKAPKLLIFEVTKRSSGISNRFSGSKSGNTASLTISGLQGEDEADYYCCSYAGASTFVFGGGTKLTVL
For B1, the binding result is given as “binds”.
